{"source": "paper PMC7290323", "origin": "cited, not measured here", "target": "GPP130 luminal domain (Homo sapiens) (UniProt O00461)", "sequence (O00461 34-696)": "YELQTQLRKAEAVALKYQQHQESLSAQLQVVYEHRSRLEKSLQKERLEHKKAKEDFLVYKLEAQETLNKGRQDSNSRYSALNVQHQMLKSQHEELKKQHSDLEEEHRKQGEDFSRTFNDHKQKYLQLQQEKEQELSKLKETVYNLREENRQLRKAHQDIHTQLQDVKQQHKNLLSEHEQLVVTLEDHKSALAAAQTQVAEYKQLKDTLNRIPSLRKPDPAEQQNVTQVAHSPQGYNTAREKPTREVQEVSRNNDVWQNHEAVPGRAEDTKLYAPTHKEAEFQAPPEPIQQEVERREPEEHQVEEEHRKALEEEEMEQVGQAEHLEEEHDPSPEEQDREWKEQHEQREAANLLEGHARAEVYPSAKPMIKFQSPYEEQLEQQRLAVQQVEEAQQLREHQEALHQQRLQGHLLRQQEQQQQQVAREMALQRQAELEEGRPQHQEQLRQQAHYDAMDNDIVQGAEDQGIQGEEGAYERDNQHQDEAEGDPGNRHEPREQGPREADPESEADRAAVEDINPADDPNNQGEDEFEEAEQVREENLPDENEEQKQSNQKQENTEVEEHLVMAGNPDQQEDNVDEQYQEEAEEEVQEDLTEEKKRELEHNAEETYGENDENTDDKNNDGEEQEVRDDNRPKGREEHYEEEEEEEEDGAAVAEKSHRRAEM"}
{"substance": "Shiga toxin 1 B subunit (STxB/STx1B) (from UniProt Q32GM0)", "values": [{"measurement": "Kd", "value": 150, "unit": "nM"}]}
